Values of other authors as cited in patent US10822386B2, “Insulin analogues with enhanced stability and reduced mitogenicity” (CASE WESTERN RESERVE UNIVERSITY, priority 2014, dated 2020).

Experiments:
Sprague-Dawley rats = details: chronic treatment, relative to wild-type insulin
insulin receptor = insulin receptor (Homo sapiens, UniProt P06213); details: versus wild-type insulin
[1] = substitution of His^B10 by Asp, versus wild-type
[2] = test system: neoplastic cell lines (including a cell line derived from a human breast cancer)

For Asp^B10-insulin, the “incidence of mammary tumors” value (Sprague-Dawley rats) is given as “excess incidence of mammary tumors”, the “affinity for the insulin receptor” value (insulin receptor) is given as “enhances the affinity” and the “thermodynamic stability of the zinc-free insulin monomer” value [1] is given as “augment the thermodynamic stability”. For the same substance, the “potency to stimulate lipogenesis” value (isolated adipocytes) was “augments in parallel its potency” and the “mitogenicity in cell culture” value [2] was “increased mitogenicity”.
